B1: complement regulatory protein factor H (natural protein)
chain: EDCNELPPRRNTEILTGSWSDQTYPEGTQAIYKCRPGYRSLGNVIMVCRKGEWVALNPLRKCQKRPCGHPGDTPFGTFTLTGGNVFEYGVKAVYTCNEGYQLLGEINYRECDTDGWTNDIPICEVVKCLPVTAPENGKIVSSAMEPDREYHFGQAVRFVCNSGYKIEGDEEMHCSDDGFWSKEKPKCVEISCKSPDVINGSPISQKIIYKENERFQYKCNMGYEYSERGDAVCTESGWRPLPSCEEKSCDNPYIPNGDYSPLRIKHRTGDEITYQCRNGFYPATRGNTAKCTSTGWIPAPRCTLKPCDYPDIKHGGLYHENMRRPYFPVAVGKYYSYYCDEHFETPSGSYWDHIHCTQDGWSPAVPCLRKCYFPYLENGYNQNYGRKFVQGKSIDVACHPGYALPKAQTTVTCMENGWSPTPRCIRVKTCSKSSIDIENGFISESQYTYALKEKAKYQCKLGYVTADGETSGSITCGKDGWSAQPTCIKSCDIPVFMNARTKNDFTWFKLNDTLDYECHDGYESNTGSTTGSIVCGYNGWSDLPICYERECELPKIDVHLVPDRKKDQYKVGEVLKFSCKPGFTIVGPNSVQCYHFGLSPDLPICKEQVQSCGPPPELLNGNVKEKTKEEYGHSEVVEYYCNPRFLMKGPNKIQCVDGEWTTLPVCIVEESTCGDIPELEHGWAQLSSPPYYYGDSVEFNCSESFTMIGHRSITCIHGVWTQLPQCVAIDKLKKCKSSNLIILEEHLKNKKEFDHNSNIRYRCRGKEGWIHTVCINGRWDPEVNCSMAQIQLCPPPPQIPNSHNMTTTLNYRDGEKVSVLCQENYLIQEGEEITCKDGRWQSIPLCVEKIPCSQPPQIEHGTINSSRSSQESYAHGTKLSYTCEGGFRISEENETTCYMGKWSSPPQCEGLPCKSPPEISHGVVAHMSDSYQYGEEVTYKCFEGFGIDGPAIAKCLGEKWSHPPSCIKTDCLSLPSFENAIPMGEKKDVYKAGEQVTYTCATYYKMDGASNVTCINSRWTGRPTCRDTSCVNPPTVQNAYIVSRQMSKYPSGERVRYQCRSPYEMFGDEEVMCLNGNWTEPPQCKDSTGKCGPPPPIDNGDITSFPLSVYAPASSVEYQCQNLYQLEGNKRITCRNGQWSEPPKCLHPCVISREIMENYNIALRWTAKQKLYSRTGESVEFVCKRGYRLSSRSHTLRTTCWDGKLEYPTCAKR
notes: complement factor H, human, 155 kDa plasma protein; the assay's purified field tells the two apart; also called fH; purified fH; source: bought: CompTech (purified fH)

Experiments:
[1] = molecular target: recombinant SdrE (6×His-tagged A region of serine-aspartate repeat-containing protein E) (S. aureus); test: far-Western, overlay or dot blot; 5 µg of rSdrE, rClfA and BSA adsorbed to a PVDF membrane, blocked with 3% BSA/TBST, overlaid with purified fH (20 µg fH/10 ml block buffer) overnight; anti-fH, ECL, optical densitometry against a purified fH dilution series
[2] = molecular target: T1, SdrE expressed on the surface of Lactococcus lactis (pKS80-SdrE) (S. aureus, UniProt O86489 53-1132); test: far-Western, overlay or dot blot; whole L. lactis (pKS80-SdrE or pKS80) immobilised on a PVDF membrane, overlaid with 5% HI-serum in 0.05% gelatin/PBST for 1 hr; anti-fH, optical densitometry against a serum dilution series; conditions: partners not purified
T1 construct: Compared throughout with L. lactis carrying the empty vector pKS80; also called L. lactis (pKS80-SdrE); SdrE-expressing L. lactis; source: L. lactis, constitutively expressed from pKS80, on the bacterial surface

[3] = molecular target: T1, SdrE expressed on the surface of …; test: binding to whole bacteria in solution, SDS extraction, fH ELISA; L. lactis (OD600 = 4.0) in GVBS^++ with various amounts of HI-serum, 1 hr, 37°C; bound proteins extracted with 2% SDS; fH ELISA with chicken antibodies specific for human fH; conditions: partners not purified

T1 sequence (O86489 53-1132): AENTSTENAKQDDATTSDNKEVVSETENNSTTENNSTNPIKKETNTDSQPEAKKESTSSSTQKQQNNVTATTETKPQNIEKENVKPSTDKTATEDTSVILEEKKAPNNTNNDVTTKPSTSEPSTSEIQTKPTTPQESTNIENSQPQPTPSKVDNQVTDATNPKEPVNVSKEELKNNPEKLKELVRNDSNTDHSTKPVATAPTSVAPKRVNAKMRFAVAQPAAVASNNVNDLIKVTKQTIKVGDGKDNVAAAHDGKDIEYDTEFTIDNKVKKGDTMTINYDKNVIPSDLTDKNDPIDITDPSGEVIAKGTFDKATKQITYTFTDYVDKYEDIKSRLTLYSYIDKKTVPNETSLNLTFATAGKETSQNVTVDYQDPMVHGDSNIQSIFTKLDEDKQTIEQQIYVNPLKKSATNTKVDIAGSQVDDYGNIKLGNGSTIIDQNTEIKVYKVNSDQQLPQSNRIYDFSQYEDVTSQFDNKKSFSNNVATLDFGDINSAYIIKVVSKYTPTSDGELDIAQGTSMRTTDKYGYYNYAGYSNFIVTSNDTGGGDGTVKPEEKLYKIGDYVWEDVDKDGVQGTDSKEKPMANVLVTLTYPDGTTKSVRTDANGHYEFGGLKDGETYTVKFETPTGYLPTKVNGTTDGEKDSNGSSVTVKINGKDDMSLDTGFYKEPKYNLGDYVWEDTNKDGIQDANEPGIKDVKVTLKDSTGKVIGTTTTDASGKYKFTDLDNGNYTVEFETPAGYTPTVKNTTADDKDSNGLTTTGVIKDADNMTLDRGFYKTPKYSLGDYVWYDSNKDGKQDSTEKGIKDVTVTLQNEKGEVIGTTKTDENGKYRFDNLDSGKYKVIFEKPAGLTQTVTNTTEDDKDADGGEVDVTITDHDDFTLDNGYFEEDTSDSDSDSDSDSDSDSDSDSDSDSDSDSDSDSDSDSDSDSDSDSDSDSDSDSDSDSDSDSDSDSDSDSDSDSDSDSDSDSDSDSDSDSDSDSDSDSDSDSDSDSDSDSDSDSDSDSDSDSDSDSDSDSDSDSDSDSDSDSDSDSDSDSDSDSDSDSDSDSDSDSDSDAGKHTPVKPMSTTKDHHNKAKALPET
Chain of recombinant SdrE (6×His-tagged A region of serine-aspartate repeat-containing protein E) (S. aureus) (O86489 53-606 limits assumed): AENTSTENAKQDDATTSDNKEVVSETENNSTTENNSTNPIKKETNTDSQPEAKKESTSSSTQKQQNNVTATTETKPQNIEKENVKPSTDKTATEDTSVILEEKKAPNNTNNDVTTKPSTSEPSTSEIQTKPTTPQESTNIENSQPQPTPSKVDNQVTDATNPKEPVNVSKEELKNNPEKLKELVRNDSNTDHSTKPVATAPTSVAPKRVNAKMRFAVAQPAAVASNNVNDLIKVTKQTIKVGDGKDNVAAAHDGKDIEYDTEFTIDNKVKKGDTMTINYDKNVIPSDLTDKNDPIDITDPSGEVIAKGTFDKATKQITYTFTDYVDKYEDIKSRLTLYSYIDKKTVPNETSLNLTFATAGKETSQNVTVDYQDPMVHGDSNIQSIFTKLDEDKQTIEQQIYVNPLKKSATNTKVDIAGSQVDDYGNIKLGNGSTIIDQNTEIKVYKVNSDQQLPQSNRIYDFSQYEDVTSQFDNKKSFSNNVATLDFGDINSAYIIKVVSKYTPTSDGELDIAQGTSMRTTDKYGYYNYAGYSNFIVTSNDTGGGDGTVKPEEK

| Molecule | amount of fH bound [1] | fold more serum fH bound than on L. lactis (pKS80) [2] | fold more serum fH bound than on L. lactis (pKS80) [3] |
| --- | --- | --- | --- |
| complement regulatory protein factor H (from UniProt P08603 19-1231) (natural protein) | 2.2 ng |  |  |
| B1 |  | 4 fold | ≤ 4 fold |
